Data taken from patent EP4631974A1.
Where two headings read alike, the source gives them in different places.

Columns and labels:
[1] = molecular target: RSV A2 pre-F protein (respiratory syncytial virus (RSV) A2) (UniProt P03420); test: ELISA, plate-coated RSV A2 pre-F, anti-human IgG Fc-HRP detection
[2] = molecular target: RSV A2 pre-F protein (respiratory syncytial virus (RSV) A2) (UniProt P03420); test: BLI (Octet R8), RSV A2 pre-F captured on HIS1K sensor, antibody in solution
[3] = molecular target: RSV A2 pre-F protein (respiratory syncytial virus (RSV) A2) (UniProt P03420); test: as above; remark: listed apart in the source
[4] = molecular target: RSV A2 pre-F protein (respiratory syncytial virus (RSV) A2) (UniProt P03420); test: ELISA, plate-coated RSV A2 pre-F, anti-human IgG Fc-HRP detection (2-fold dilutions from 1 ug/mL)

MEDI8897 (antibody)
EC50 [1]: 0.0313 µg/mL | Kd [2]: 0.122 nM | Kd [3]: 0.379 nM | EC50 [4]: 0.0146 µg/mL
